The record followed here is patent US20130315920A1, “Cross Protective Epitopes of Aspergillus Fumigatus and Candida Albicans” (Cell Medica Limited, priority 2010, published 2013).

In assay [1] the target is PE-conjugated Crf1 p41-specific HLA-DRB1*0401 MHC class II tetramer (Aspergillus fumigatus; human). In words: flow cytometry, tetramer staining of T-cell lines expanded for 14 days. Background: Flow cytometry measures light scatter and fluorescence of single cells or particles in a stream.
The subject of assay [2] is HLA-DRB1*03, 04 and 13. The assay is described as follows: Minimal epitope analysis with 11-mer peptides. The conditions noted are these: data not shown. Format: cell-based, human. An excerpt: To evaluate the utility of the Crf1 p41 epitope for potential clinical application, we defined the HLA restriction of Crf1 p41-specific CD4^+ T clones from different donors by stimulation with peptide-pulsed partially matched LCLs. […] As presentation of the Crf1 p41 peptide could also be mediated by other MHC class II alleles, we verified the HLA restriction by stimulation of PBMC from additional donors.
A peptide library covering the complete Crf1 sequence consisting of 94 15-mer peptides overlapping by […] (aa) was divided into sub-pools of 10 peptides and 94 single peptides (p1-p94) (PANATecs). 3 11-mer peptides of p40/41 overlapping by 2aa ([…], […], HTYTIDWTKDA) were obtained from JPT Peptide Technologies.

Assay [3] concerns the target recombinant A. fumigatus secreted protein peptidase (Aspergillus fumigatus).
The target in assay [4] is recombinant A. fumigatus Crf1 protein with FLAG-Tag (Aspergillus fumigatus).
The subject of assay [5] is C. albicans. The assay is described as follows: Vaccination of mice before intragastric C. albicans infection. Type of assay: in vivo, BALB/c mice. As for the experimental part: A. fumigatus Crf1 protein mediates cross-protection to C. albicans. Mice were injected intranasally with resting A. fumigatus conidia 14 days before infection, or with purified Crf1 protein and murine CpG oligodeoxynucleotide 1862 14, 7 and 3 days before intragastric infection with C. albicans. Note (a) the reduced inflammatory cell recruitment and acanthosis in mice vaccinated with A. fumigatus conidia or Crf1 protein as opposed to control mice shown in FIG. 5a and c and (b) the increase in protective TH1 and regulatory T-cell transcription factors and cytokine levels. Shown are fungal growth (CFU/organ, mean±SE), stomach histology and transcription factor and cytokine mRNA expression in CD4^+ T-cells from mesenteric lymph nodes a week after infection with C. albicans. Shown are results pooled from 2 experiments (6 animals/group). Bars indicate SE. P, vaccinated animals versus control. (c) Proliferation of purified CD4^+ spleen cells from untreated mice or animals vaccinated with A. fumigatus or C. albicans in response to control DC, anti-CD3E antibody, heat-inactivated A. fumigatus or C. albicans or A. fumigatus Crf1 p41 and p22 peptide. The results are expressed as mean cpm±SEM of triplicate cultures. P, stimulated versus control DC.
Mice were infected with 2×10^7 resting A. fumigatus conidia intranasally^7,45 and with 10^8C. albicans intragastrically^13. For co-infection, mice were infected a week before the subsequent infection. In the vaccination model, mice were injected intranasally with 2×10^7 Aspergillus resting conidia/20 μl saline once, 14d before infection, or with 5 μg purified Crf1p antigen^7 and 10 nM murine CpG oligodeoxynucleotide 1862, administered 14 d, 7 d and 3 d before intragastric C. albicans infection^7. Mice were monitored for survival (MST, days) and fungal growth (CFU/organ expressed as mean±SE). Mice dying of fungal challenge routinely underwent necropsy for histopathological confirmation of infection^7. […]

The test system of assay [6] is T-cell lines from PBMC of healthy donors. In words: IFN-γ ELISA of T-cell lines stimulated with recombinant A. fumigatus proteins. Format: cell-based, human. The note with it: 5 μg/ml protein. From the text: As the identification of potential protective fungal antigens is rather intricate due to the extensiveness of fungal genomes, we analyzed 6 different A. fumigatus recombinant proteins based on their previously reported immunogeneic reactivity in mice and humans^7,10. […] By contrast, GPI-anchored extracellular cell wall glucanase Crf1 and secreted protein peptidase induced high IFN-γ in 6 of 7 and 5 of 10 tested donors, respectively. The response was mediated by CD4^+ TH1 cells, as MHC class II blocking antibody nearly abrogated IFN-γ release (data not shown). Due to the broad response and the sequence similarity to the C. albicans orthologue Crh1, we focused in subsequent experiments on the protein Crf1. By epitope mapping of 7 healthy individuals with different MHC class II alleles, we identified 10 potential candidate epitopes (Table 1). Based on the results obtained by epitope mapping, the probability of antigen presentation by certain MHC class II alleles assessed by epitope prediction^11, previously reported immunogeneic reactivity^12 and sequence similarity to the C. albicans homologue Crh1, we then generated CD4^+ TH1 T-cell clones specific for the peptides p1, p22, p27, p41, p48, p59, p69 and p84 (FIG. 1a and Table 1).
A. fumigatus superoxide dismutase^34, catalase^35, peptidase^36 and 1,3-beta-glucanosyl-transferase Gel1^30 were produced in the yeast Pichia pastoris as described^37. Extracellular cell wall glucanase Crf1^37 (cDNA provided by Utz Reichard) and the major allergen and cytotoxin AspF1^10 were expressed with FLAG-Tags in the human cell line phoenix GALV^38.
For analysis of recombinant proteins and epitope mapping, T-cell lines were generated by incubation of 1×10^7 PBMC per well in 6-well cell culture plates with 5 μg/ml protein or peptide for 7d in the presence of 5 U/ml IL-2 (Proleukin, Chiron). Antigen specificity was analyzed by IFN-γ ELISA^42 after restimulation with autologous monocytes incubated overnight with 5 μg/ml protein in a responder to stimulator (R:S) ratio of 5:1. Epitope mapping was performed by IFN-γ ELISPOT^39 after stimulation with peptide-pulsed autologous DC at a R:S ratio of 10:1.
On the technique in general: In an ELISA, binding on a coated surface is turned into a signal by an enzyme label.

In assay [1], “Crf1 p41-specific CD4^+ T-cell lines expanded for 14 days (cells without a defined receptor)” came in with a frequency of antigen-specific cells as determined by tetramer (median) of 50.6%.

Take “HTYTIDWTKDA (peptide of A. fumigatus Crf1)”: the Minimal epitope result in assay [2] was “is the minimal epitope of Crf1 p41 for all 3 HLA alleles”.

As for “T-cell lines from PBMC of healthy donors, raised with the respective recombinant A. fumigatus protein (cells without a defined receptor)”, the IFN-γ (ELISA) (of 10 tested donors) in assay [3] came out at 5. Also, the IFN-γ (ELISA) (of 7 tested donors) in assay [4] was 6.

B1: Crf1: recombinant A. fumigatus GPI-anchored extracellular cell wall glucanase Crf1; given with CpG oligodeoxynucleotide 1862 in mice (protein)
chain: QTWSKCNPLEKTCPPNKGLAASTYTADFTSASALDQWEVTAGKVPVGPQGAEFTVAKQGDAPTIDTDFYFFFGKAEVVMKAAPGTGVVSSIVLESDDLDEVDWEVLGGDTTQVQTNYFGKGDTTTYDRGTYVPVATPQETFHTYTIDWTKDAVTWSIDGAVVRTLTYNDAKGGTRFPQTPMRLRLGSWAGGDPSNPKGTIEWAGGLTDYSAGPYTMYVKSVRIENANPAESYTYSDNSGSWQSIKFDGSVDISSSSSVTSSTTSTASSASSTSSKTPSTSTLATSTKATPTPSGTSSGSNSSSSAEPTTTGGTGSSNTGSGSGSGSGSGSSSSTGSSTSAGASATPELSQG
For the molecule B1, the “Tbet/Foxp3 CD4+ T-cells and cytokines in mesenteric lymph nodes” value in assay [5] (a week after infection with C. albicans) was “activation of Tbet^+/Foxp3^+ CD4^+T-cells and their respective cytokines, IFN-γ and IL-10, in mesenteric lymph nodes”. Besides, the “Protection against lethal infection” value in assay [5] (vaccinated mice) was “protected against lethal infection with C. albicans”. For the same molecule, the “Fungal burden and inflammatory pathology in the stomach” value in assay [5] (vaccination intranasally before intragastric C. albicans infection, Crf1 protein with CpG as adjuvant) is “both vaccination strategies reduced the fungal burden and inflammatory pathology in the stomach of mice with candidiasis”. Also, the “donors with high IFN-γ of tested donors” value in assay [6] was 6 of 7.
